Assay results published in patent US20250121076A1, “POLYPEPTIDE DRUG CONJUGATE HAVING NOVEL STRUCTURE AND APPLICATION THEREOF” (MEDSHINE DISCOVERY INC., priority 2021, published 2025).
Counter-ions that a name gives are not always drawn. Starred links: 1 amine or outer side, 2 acyl side, 3 side chain; linkers in the order of their positions; H or OH if unused. Positions of bridges follow the written chain, without caps; N, C: chain ends. Non-standard residues stand in square brackets, D forms with d. Residues, ends and D or L forms follow the SMILES beside them. Chains are numbered I, II in the order given. *: point of attachment. TATA = O=C(CC[*:1])N1CN(C(=O)CC[*:2])CN(C(=O)CC[*:3])C1; Dolaproine = CO[C@@H]([C@@H]1CCCN1)[C@@H](C)C(=O)O; Dil = CC[C@H](C)[C@H](NC)[C@@H](CC(=O)O)OC; X2 = O=C(CCCC(=O)[*:2])NCCC(=O)[*:1]; PABC = O=C(OCc1ccc(N[*:1])cc1)[*:2]; X1 = C[C@@H](N*)[C@@H](O)c1ccccc1; Hyp = O=C(O)[C@@H]1C[C@@H](O)CN1; hArg = N=C(N)NCCCC[C@H](N)C(=O)O; Cit = NC(=O)NCCC[C@H](N)C(=O)O; Pen = CC(C)(S)[C@H](N)C(=O)O; NMeV = CN[C@H](C(=O)O)C(C)C; Sar = CNCC(=O)O

Experiment: Metabolic stability in hepatocytes
Format: in vitro ADME, Cynomolgus macaques
Details: Cynomolgus macaque hepatocytes, 1 μM, 0.5×10^6 cells/mL
Description: To investigate the metabolic stability of the compounds of the present invention in hepatocytes from Cynomolgus macaques and humans.
Incubations were performed in 96-well plates using an external extraction method. Several 96-well sample precipitation plates, designated T0, T15, T30, T60, T90, T0-MC, T90-MC, and blank matrix, were prepared, respectively. The recovery culture medium and incubation culture medium were removed in advance and placed in a 37° C. water bath for preheating. Frozen hepatocytes from Cynomolgus macaques and humans were removed from a liquid nitrogen tank, recovered, and diluted to 0.51×10^6 cells/mL with the incubation culture medium. […]
At the end of the incubation at the corresponding time point, the incubation plates were removed, from which 25 μL of a compound mixture with the cells was removed and added to sample plates containing 125 μL of stop buffer. […] All samples were mixed uniformly and then analyzed by the LC-MS/MS method.
The concentration of the compound of the present invention in the sample was semi-quantitatively determined by the liquid chromatography-tandem mass spectrometry (LC-MS/MS) method without a standard curve and quality control sample. […]

## CC[C@H](C)[C@@H]([C@@H](CC(=O)N1CCC[C@H]1[C@H](OC)[C@@H](C)C(=O)N[C@H](C)[C@@H](O)c1ccccc1)OC)N(C)C(=O)[C@@H](NC(=O)[C@H](C(C)C)N(C)C(=O)OCc1ccc(NC(=O)[C@H](CCCNC(N)=O)NC(=O)[C@@H](NC(=O)CCCC(=O)NCCC(=O)N(C)CC(=O)N(C)CC(=O)N(C)CC(=O)N(C)CC(=O)N(C)CC(=O)N(C)CC(=O)N(C)CC(=O)N(C)CC(=O)N(C)CC(=O)N(C)CC(=O)N[C@H]2CCCCNC(=O)C[C@@H](C(=O)N[C@H]3CSCCC(=O)N4CN5CN(C4)C(=O)CCSC(C)(C)[C@@H](C(N)=O)NC(=O)[C@H](CCCCNC(=N)N)NC(=O)[C@H](Cc4c[nH]c6ccccc46)NC(=O)[C@@H](CC(=O)O)NC(=O)[C@@H]4CCCN4C(=O)[C@H](Cc4c[nH]cn4)NC(=O)[C@H](CC(C)C)NC(=O)[C@H](CSCCC5=O)NC(=O)[C@H](CC(C)C)NC(=O)[C@@H]4CCCN4C(=O)[C@H](CC(N)=O)NC(=O)[C@H](C(C)C)NC(=O)[C@H](CC(C)C)NC(=O)[C@@H]4C[C@@H](O)CN4C3=O)NC(=O)[C@H](CCCCNC(=N)N)NC2=O)C(C)C)cc1)C(C)C [Acetate salt of PDC_8] (I: [Sar][Sar][Sar][Sar][Sar][Sar][Sar][Sar][Sar][Sar]K[hArg]DC[Hyp]LVNPLCLHP[dD]W[hArg][Pen]-NH2 / II: V[Cit][PABC][NMeV]V[Dil][Dolaproine]-X1; lactam I:11-I:13; linker I:14-I:21-I:28 via TATA; linker I:N-II:N via X2)
  half-life: > 3.61 h
read-out: CLint (liver)
  CLint scaled: < 23 mL/min/kg
